Measured values taken from patent publication US20080233097A1, “Phosphorylation Site Of Mitogen-Activated Protein Kinases, Modified Proteins And Applications” (UNIVERSIDAD AUTONOMA DE MADRID, priority 2005, published 2008).
Values belong to the molecule of their own block, whether it stands above or below them.

Experiments:
[1] = tested on: β2-adrenergic (β2-AR) receptor; assay: isoproterenol stimulation of HEK 293 cells with β2-AR, Flag-p38α and GRK2 (co-immunoprecipitation, anti-phospho-p38); type: cell-based, human
Experimental: 48 hours after the transfection and after a 2 hour serum starvation, the cells were stimulated with the adrenergic agonist isoproterenol (ISO, 10 μM) for 5 or 10 minutes or they were not stimulated (0 min ISO). Likewise, cells without overexpressed β2-AR receptor were stimulated with 0.5 M NaCl for 15 minutes. The cells were solubilized in a buffer suitable for immunoprecipitation with the M2 anti-Flag antibody bound to agarose and after taking aliquots of these lysates (10%) for overexpression control (lysate panels) the immune complexes were incubated overnight at 4° C. The immunoprecipitated proteins (Ip anti-Flag) were resuspended in an electrophoresis breaking buffer and the bound proteins were resolved in a 10% SDS-polyacrylamide gel. […] The negative immunoprecipitation controls (Cneg) in the absence of Flag-p38α and of stimulation with 10 μM isoproterenol are also included in the figure. […] As described in A, non-specific immunoprecipitation controls (Cneg) of the M2 anti-Flag-agarose antibody were carried out.
In the GRK2 and Flag-p38α association experiments, a 1:1:1 ratio of GRK2 (or GRK2-K220R), Flag-p38α, and β2-adrenergic receptor was used (generally 1 μg of each per p60).
The stimulation of HEK293 cells with 10 μM isoproterenol (Sigma) was carried out at 37° C. in culture medium without serum. […]

3T3-L1 cells = assay: adipocyte differentiation of 3T3-L1 (Oil Red staining, adipocyte count); type: cell-based; conditions: 3T3L1 lines stably transfected, day 15
Source text: 3T3L1 lines stably transfected with pCDNA3-GRK2 and pCDNA3-GRK2K220R were made. GRK2 (anti-GRK2) expression controls obtained in cell lines, compared to 3T3L1 levels, are included. The cells were subjected to a standard differentiation treatment and on day 15 of the latter, the cells were fixed with formalin and stained with Oil Red, a lipophilic coloring which binds to the fats accumulated by the adipocytes. The cells with adipocytic phenotype (in red) were counted under microscope in a total of 25 fields. Representative photographs of two independent experiments are shown in duplicate. A photo of the 3T3L1 cells, free of stimulation with insulin during the differentiation process (control), is also included. The graph reflects the adipocyte count (±SEM) in these experiments.
The cell culture was carried out with 10% DMEM medium of NCS serum. However, the entire differentiation process which is described below must be performed in depleted AXC serum (ion exchange resin) by means of successive adsorptions of fetal calf serum on an anion exchange resin and on active carbon. AXC serum was provided by the kitchen service of the Instituto of Investigaciones Biomédicas (Biomedical Research Institute). The cells are grown until their confluence and are plated (5×10^5 in P-100) in DMEM-10% AXC medium, supplemented with 4 μM of biotin (Sigma). The following day, the medium is replaced with fresh medium. The cells are grown another three days, until confluence is reached again, that day is called day “0”. On day 0 of differentiation, the cells are cultured in a medium containing: 0.5 μM dexamethasone (Sigma), 0.5 mM 3-isobutyl-1-methylxanthine (IMBX, of Sigma) and 1 μM insulin (Sigma) and in which they will remain for another three days. […] From day 6 to day 15, the adipogenesis was analyzed by staining with Oil Red, a red coloring of lipophilic constitution which binds to the drops of fat accumulated by the adipocytes in their cytoplasm. […] The cells are counted in a total of 25 fields per each experimental plate.

GRK2 = molecular target: T1, GRK2 (Bos taurus, UniProt P21146); assay: phosphorylation of p38 mutants and truncated proteins by GRK2 in vitro; type: biochemical; conditions: GST fusion proteins, 30 minutes at 30° C.
T1 construct: made in house; host or cells: Sf9 cells (baculovirus)
T1 sequence (P21146 1-689): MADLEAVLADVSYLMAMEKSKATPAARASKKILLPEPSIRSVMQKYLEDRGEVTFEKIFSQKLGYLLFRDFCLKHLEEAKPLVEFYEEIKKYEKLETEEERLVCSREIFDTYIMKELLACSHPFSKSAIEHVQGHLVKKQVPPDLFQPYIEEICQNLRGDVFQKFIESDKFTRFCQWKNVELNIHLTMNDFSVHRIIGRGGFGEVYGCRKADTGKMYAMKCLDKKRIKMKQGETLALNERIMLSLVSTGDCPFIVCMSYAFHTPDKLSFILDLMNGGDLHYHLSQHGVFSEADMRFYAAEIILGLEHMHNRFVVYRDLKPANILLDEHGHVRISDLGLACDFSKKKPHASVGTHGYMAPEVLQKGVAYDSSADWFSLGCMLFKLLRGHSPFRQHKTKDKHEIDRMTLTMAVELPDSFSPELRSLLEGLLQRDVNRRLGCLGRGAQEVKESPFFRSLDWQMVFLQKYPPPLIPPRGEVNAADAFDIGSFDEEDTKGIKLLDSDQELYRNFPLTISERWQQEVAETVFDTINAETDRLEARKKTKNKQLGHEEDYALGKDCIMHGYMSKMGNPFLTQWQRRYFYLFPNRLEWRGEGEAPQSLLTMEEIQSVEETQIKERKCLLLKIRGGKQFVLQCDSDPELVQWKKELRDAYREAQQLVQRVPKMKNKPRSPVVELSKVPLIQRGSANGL
Experimental: FIG. 6A: Proteins fused to GST (black rectangle in the protein schemes) were purified from bacteria transformed with the plasmids pGEX2T-p38α, pGEX4T-Mxi2 and pGEX4T-Mxi2Δ17: p38α, Mxi2 and Mxi2Δ17. The […] isoforms used as C-terminal truncated mutants for trying to limit the GRK2 phosphorylation site. […] Heparin (150 nM) was included as a specific GRK2 inhibitor. The reactions were stopped by adding SDS breaking buffer. The samples were resolved in 8% SDS-PAGE. For the purpose of assuring the inclusion of identical amounts of protein, they were first visualized in the gel by Coomassie Brilliant Blue (CBB) staining. Then the gel was dried and the radioactivity incorporated to the proteins (^32P) was detected. FIG. 6B: The truncated GST-280-360p38 protein, corresponding to the last 80 p38α amino acids, was generated by means of the Invitrogen Gateway system. Phosphorylation assays were carried out with Mxi2Δ17 as a p38 N-terminal, 280-360 p38 as C-terminal and with whole p38α in the same conditions as described in section A. The phosphorylation was detected by autoradiography (^32P) and controls of the amount of protein used in the assays were carried out concomitantly by Western blot with the anti-GST antibody. The presence of the GST-280-360p38 protein, which is not phosphorylated, is clearly observed. STD, mobility of standard molecular weight proteins.
FIG. 9A: p38T123A and p38T123D proteins, fused to GST, were made by directed mutagenesis in the prokaryotic expression plasmids pGEX2T. The ability of the recombinant GST-p38T123A and GST-p38T123D proteins to be GRK2 substrates in comparison to the wild GST-p38WT protein and at the final concentrations indicated in the Figure was assayed. The upper panels represent the obtained phosphorylation (32 P) and the lower panels show, by anti-p38N WB, the amount of recombinant protein used in the assays. […]
Heparin (150 nM) was included as a specific GRK2 inhibitor. […] Subsequently, the gel was dried and the radioactivity incorporated to the proteins (^32P) was detected. […]

MKK6CAM = assay: p38 phosphorylation by MKK6CAM in vitro; type: biochemical; conditions: 150 nM fusion protein, 40 ng MKK6CAM
Experimental: (§1) The reactions were carried out at 30° C. for 30 minutes and the proteins were separated in 8% SDS-PAGE gels. The amount of p38 in each point was visualized by Coomassie Blue staining. Then the radioactivity in each p38 isoform was determined. […] FIG. 11B: In these same assays, the ability of MKK6CAM-activated GST-p38WT, GST-p38T123A and GST-p38T123D to phosphorylate 2 μg of GST-ATF2 is evaluated. The representative autoradiography (^32P) of the total GST-ATF2 control (Coomassie Blue) is attached.
As in the previous cases, the reactions were left to take place at 30° C. for 30 minutes and the proteins were resolved in 8% SDS-PAGE gels. With the purpose of assuring the inclusion of identical amounts of protein, they were visualized in the gel by Coomassie Blue staining. Subsequently, the radioactivity incorporated in each p38 isoform was determined.

GST-ATF2 = assay: phosphorylation of GST-ATF2 by MKK6CAM-activated p38; type: biochemical; conditions: with MKK6CAM, 2 μg GST-ATF2
Experimental: as §1
(§2) The ATF2 and MEF2A forms bound to GST were used to test the catalytic activity of GST-p38. In most cases, 2 μg of GST-ATF2 or GST-MEF2A, of own production, were used. The phosphorylation conditions are the same as set forth in the foregoing cases. Nevertheless, in other occasions, relevantly pointed out in the Figures, 0.2 μg of substrate were used and the phosphorylation reaction was allowed to take pace for 15 minutes only.

GST-MEF2A = assay: phosphorylation of GST-MEF2A by p38; type: biochemical
Experimental: FIG. 12A: In vitro phosphorylations are carried out with the fusion proteins indicated in the Figure, in the presence (+) or absence (−) of recombinant MKK6CAM(40 ng) and 2 μg of GST-MEF2A. The assay was left to take place for 30 minutes. The proteins were separated in 8% SDS-PAGE, stained with CBB and the incorporated radioactivity (^32P) was detected. Panels of a representative experiment of the three assays carried out independently are provided. FIG. 12B: The baseline activity of the three p38 fusion proteins in the absence of the MKK6CAM activator was evaluated in the previously described conditions. A representative autoradiography after a long exposure is shown.
as §2

Molecule: CC(C)NCC(O)c1ccc(O)c(O)c1 (stereo not shown) [isoproterenol]
p38 activation (anti-phospho-p38) ([1]; 10 μM): not very strong
association between GRK2 and p38 (co-immunoprecipitation) ([1]; 10 μM, 0, 5 or 10 minutes): maximum association is obtained five minutes after exposure

B1: K220R: catalytically inactive GRK2-K220R mutant (protein)
chain: MADLEAVLADVSYLMAMEKSKATPAARASKKILLPEPSIRSVMQKYLEDRGEVTFEKIFSQKLGYLLFRDFCLKHLEEAKPLVEFYEEIKKYEKLETEEERLVCSREIFDTYIMKELLACSHPFSKSAIEHVQGHLVKKQVPPDLFQPYIEEICQNLRGDVFQKFIESDKFTRFCQWKNVELNIHLTMNDFSVHRIIGRGGFGEVYGCRKADTGKMYAMRCLDKKRIKMKQGETLALNERIMLSLVSTGDCPFIVCMSYAFHTPDKLSFILDLMNGGDLHYHLSQHGVFSEADMRFYAAEIILGLEHMHNRFVVYRDLKPANILLDEHGHVRISDLGLACDFSKKKPHASVGTHGYMAPEVLQKGVAYDSSADWFSLGCMLFKLLRGHSPFRQHKTKDKHEIDRMTLTMAVELPDSFSPELRSLLEGLLQRDVNRRLGCLGRGAQEVKESPFFRSLDWQMVFLQKYPPPLIPPRGEVNAADAFDIGSFDEEDTKGIKLLDSDQELYRNFPLTISERWQQEVAETVFDTINAETDRLEARKKTKNKQLGHEEDYALGKDCIMHGYMSKMGNPFLTQWQRRYFYLFPNRLEWRGEGEAPQSLLTMEEIQSVEETQIKERKCLLLKIRGGKQFVLQCDSDPELVQWKKELRDAYREAQQLVQRVPKMKNKPRSPVVELSKVPLIQRGSANGL
acquisition of the adipocytic morphology mediated by insulin (3T3-L1 cells): stimulates it

ability to be a GRK2 substrate (32P incorporation) (GRK2): no trace whatsoever of phosphorylation
B2: GST-280-360 p38α: truncated protein corresponding to the last 80 amino acids of p38α, fused to GST (protein)
chain: AVDLLEKMLVLDSDKRITAAQALAHAYFAQYHDPDDEPVADPYDQSFESRDLLIDEWKSLTYDEVISFVPPPLDQEEMES
modifications: left off: a dimerising Fc or GST
notes: truncated protein corresponding to the last 80 amino acids of p38α, fused to GST

B3: p38T123A: p38α mutant form that cannot be phosphorylated by GRK2 (protein, UniProt P47811 2-360, looked up, variant T123A)
Mitogen-activated protein …: SQERPTFYRQELNKTIWEVPERYQNLSPVGSGAYGSVCAAFDTKTGHRVAVKKLSRPFQSIIHAKRTYRELRLLKHMKHENVIGLLDVFTPARSLEEFNDVYLVTHLMGADLNNIVKCQKLADDHVQFLIYQILRGLKYIHSADIIHRDLKPSNLAVNEDCELKILDFGLARHTDDEMTGYVATRWYRAPEIMLNWMHYNQTVDIWSVGCIMAELLTGRTLFPGTDHIDQLKLILRLVGTPGAELLKKISSESARNYIQSLAQMPKMNFANVFIGANPLAVDLLEKMLVLDSDKRITAAQALAHAYFAQYHDPDDEPVADPYDQSFESRDLLIDEWKSLTYDEVISFVPPPLDQEEMES
modifications: GST fusion in some forms
notes: p38α mutant form that cannot be phosphorylated by GRK2
ability to be a GRK2 substrate (32P incorporation) (GRK2): none of the two mutant is a GRK2 substrate
phosphorylation by MKK6CAM (32P) (MKK6CAM): correctly phosphorylated by MKK6CAM
catalytic activity on GST-ATF2 (GST-ATF2): phosphorylate it analogously
baseline catalytic activity on MEF2A (GST-MEF2A; absence of the activating kinase MKK6, long exposure): middle ground between p38αWT and p38Tα123D
catalytic activity on MEF2A (GST-MEF2A; with MKK6CAM, 2 μg GST-MEF2A): conserves the ability to phosphorylate this substrate

B4: purified MKK6 (recombinant MKK6CAM, Upstate Biotech) (protein)
chain: MSQSKGKKRNPGLKIPKEAFEQPQTSSTPPRDLDSKACISIGNQNFEVKADDLEPIMELGRGAYGVVEKMRHVPSGQIMAVKRIRATVNSQEQKRLLMDLDISMRTVDCPFTVTFYGALFREGDVWICMELMDTSLDKFYKQVIDKGQTIPEDILGKIAVSIVKALEHLHSKLSVIHRDVKPSNVLINALGQVKMCDFGISGYLVDEVAKEIDAGCKPYMAPERINPELNQKGYSVKSDIWSLGITMIELAILRFPYDSWGTPFQQLKQVVEEPSPQLPADKFSAEFVDFTSQCLKKNSKERPTYPELMQHPFFTLHESKGTDVASFVKLILGD
phosphorylation by MKK6CAM (32P incorporation) (GST-p38T123D): GST-p38T123D is a much worse MKK6CAM substrate than the other two p38
